Test results reported in patent US20190170753A1 (ICAHN SCHOOL OF MEDICINE AT MOUNT SINAI, published 2019).
Where no end group is shown, it is not given here.

Legend:
[1] = biological target: T1, HCV core peptide 48 (hepatitis C virus, HELM PEPTIDE1{[O=C1N[C@H]2[C@H](CS[C@H]2CCCCC(=O)[*:2])N1].S.G.S.G.G.W.L.L.S.P.R.G.S.R.P.S.W.G.P.[am]}$$$$V2.0; SMILES …); experiment: peptide EIA, 2 ug/mL IgG (summary table)
T1 construct: also called aa 95-109
T1 peptide: SGSGGWLLSPRGSRPSWGP
Experimental: (§1) The coated plates were kept dry in a sealed foil pouch and stored at <10 degrees C. until ready for use. A peptide coated plate for each test antibody was blocked using 3% BSA in PBS with 0.5% Tween 20. The blocked plates were washed with distilled water and a 2 ug/mL solution of purified IgG from each test sample diluted in BSA block solution was added to each peptide coated well of the blocked plate and allowed to incubate at room temperature for at least one hour. Following incubation the plates were washed with distilled water. A 200 ng/mL solution of peroxidase labeled F(ab′)2 fragment goat anti-mouse IgG Fc fragment specific (Jackson Immunoresearch) in BSA block solution was added to all wells and incubated at room temperature for 30 minutes. The plates were washed with distilled water and o-phenylenediamine substrate was used as the chromagen to generate signal. Plates were read at 492 nm and the results were analyzed.

[2] = biological target: T2, HCV core peptide 49 (hepatitis C virus, HELM PEPTIDE1{[O=C1N[C@H]2[C@H](CS[C@H]2CCCCC(=O)[*:2])N1].S.G.S.G.L.L.S.P.R.G.S.R.P.S.W.G.P.T.D.[am]}$$$$V2.0; SMILES …); experiment: peptide EIA, 2 ug/mL IgG (summary table)
T2 peptide: SGSGLLSPRGSRPSWGPTD
Experimental: as §1

[3] = biological target: T3, HCV core peptide 50 (hepatitis C virus, HELM PEPTIDE1{[O=C1N[C@H]2[C@H](CS[C@H]2CCCCC(=O)[*:2])N1].S.G.S.G.S.P.R.G.S.R.P.S.W.G.P.T.D.P.R.[am]}$$$$V2.0; SMILES …); experiment: peptide EIA, 2 ug/mL IgG (summary table)
T3 construct: also called aa 99-113
T3 peptide: SGSGSPRGSRPSWGPTDPR
Experimental: as §1

[4] = biological target: T4, HCV core peptide 51 (hepatitis C virus, HELM PEPTIDE1{[O=C1N[C@H]2[C@H](CS[C@H]2CCCCC(=O)[*:2])N1].S.G.S.G.R.G.S.R.P.S.W.G.P.T.D.P.R.R.R.[am]}$$$$V2.0; SMILES …); experiment: peptide EIA, 2 ug/mL IgG (summary table)
T4 peptide: SGSGRGSRPSWGPTDPRRR
Experimental: as §1

[5] = biological target: T5, HCV core peptide 52 (hepatitis C virus, HELM PEPTIDE1{[O=C1N[C@H]2[C@H](CS[C@H]2CCCCC(=O)[*:2])N1].S.G.S.G.S.R.P.S.W.G.P.T.D.P.R.R.R.S.R.[am]}$$$$V2.0; SMILES …); experiment: peptide EIA, 2 ug/mL IgG (summary table)
T5 peptide: SGSGSRPSWGPTDPRRRSR
Experimental: as §1

[6] = biological target: T6, HCV core peptide 53 (hepatitis C virus, HELM PEPTIDE1{[O=C1N[C@H]2[C@H](CS[C@H]2CCCCC(=O)[*:2])N1].S.G.S.G.P.S.W.G.P.T.D.P.R.R.R.S.R.N.L.[am]}$$$$V2.0; SMILES …); experiment: peptide EIA, 2 ug/mL IgG (summary table)
T6 peptide: SGSGPSWGPTDPRRRSRNL
Experimental: as §1

[7] = biological target: T7, HCV core peptide 54 (hepatitis C virus, HELM PEPTIDE1{[O=C1N[C@H]2[C@H](CS[C@H]2CCCCC(=O)[*:2])N1].S.G.S.G.W.G.P.T.D.P.R.R.R.S.R.N.L.G.K.[am]}$$$$V2.0; SMILES …); experiment: peptide EIA, 2 ug/mL IgG (summary table)
T7 peptide: SGSGWGPTDPRRRSRNLGK
Experimental: as §1

[8] = biological target: T8, HCV core peptide 55 (hepatitis C virus, HELM PEPTIDE1{[O=C1N[C@H]2[C@H](CS[C@H]2CCCCC(=O)[*:2])N1].S.G.S.G.P.T.D.P.R.R.R.S.R.N.L.G.K.V.I.[am]}$$$$V2.0; SMILES …); experiment: peptide EIA, 2 ug/mL IgG (summary table)
T8 construct: also called aa 109-123
T8 peptide: SGSGPTDPRRRSRNLGKVI
Experimental: as §1

[9] = biological target: T9, Mut1T110N biotin labeled HCV core peptide (hepatitis C virus, biotin labeled (position not given)); experiment: capture EIA; Ab 0.977 ng/mL; bt-peptide 500 ng/mL
T9 peptide: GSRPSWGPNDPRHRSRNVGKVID

[10] = biological target: T10, Mut6T110S biotin labeled HCV core peptide (hepatitis C virus, biotin labeled (position not given)); experiment: capture EIA; Ab 0.977 ng/mL; bt-peptide 500 ng/mL
[11] = biological target: T11, C113WT biotin labeled HCV core peptide (hepatitis C virus, also: biotin labeled, position not given here); experiment: capture EIA; Ab 0.977 ng/mL; bt-peptide 500 ng/mL
T11 peptide: RGSRPSWGPTD

[12] = biological target: T12, C113T109N biotin labeled HCV core peptide (hepatitis C virus, also: biotin labeled, position not given here); experiment: capture EIA; Ab 0.977 ng/mL; bt-peptide 500 ng/mL
T12 construct: also called C113T110N
T12 peptide: RGSRPSWGPND

[13] = biological target: T13, 92-133 biotin labeled HCV core peptide (hepatitis C virus, UniProt Q9WMX2 92-133, chain 1: biotin label (bt-pep). Its position and any spacer are not visible in the passages shown.); experiment: capture EIA; Ab 0.977 ng/mL; bt-peptide 500 ng/mL
T13 construct: Only the label 92-133 is printed
T13 peptide: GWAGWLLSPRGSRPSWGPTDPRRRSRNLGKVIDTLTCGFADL
Experimental: (§2) Assay wells were coated with sheep anti-mouse IgG Fc specific antibody and incubated overnight. The coating solution was then removed; the wells blocked using BSA/tween in PBS and then washed with dH2O. […] Next, biotin labeled peptides (diluted to 500 ng/mL in block) were added, the plates incubated for 10 minutes while shaking at 700 rpm and then washed. Peroxidase conjugated streptavidin (diluted to 200 ng/mL in block) was then added to all assay wells, incubated for 20 minutes while shaking at 700 rpm and then washed. Finally, color was developed using OPD and signal quenched using 1N H₂SO₄. Signal was read at 492 nm.

[14] = biological target: T14, WT1STHV biotin labeled HCV core peptide (hepatitis C virus, biotin labeled (position not given)); experiment: capture EIA; Ab 0.977 ng/mL; bt-peptide 500 ng/mL
T14 peptide: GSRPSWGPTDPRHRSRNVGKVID

[15] = biological target: T9, Mut1T110N biotin labeled HCV core …; experiment: capture EIA; Ab 3.906 ng/mL; bt-peptide 500 ng/mL
Experimental: as §2

[16] = biological target: T10, Mut6T110S biotin labeled HCV core …; experiment: capture EIA; Ab 3.906 ng/mL; bt-peptide 500 ng/mL
Experimental: as §2

[17] = biological target: T11, C113WT biotin labeled HCV core peptide; experiment: capture EIA; Ab 3.906 ng/mL; bt-peptide 500 ng/mL
Experimental: as §2

[18] = biological target: T12, C113T109N biotin labeled HCV core …; experiment: capture EIA; Ab 3.906 ng/mL; bt-peptide 500 ng/mL
Experimental: as §2

[19] = biological target: T13, 92-133 biotin labeled HCV core peptide; experiment: capture EIA; Ab 3.906 ng/mL; bt-peptide 500 ng/mL
Experimental: as §2

B1: Neo4 mouse monoclonal antibody (antibody, V domains shown)
VH: QIQLKESGPAVIKPSQSLSLTCIVSGFSITSSVYCWQWIRQPPGKGLEWMGRICYDGSVDYSPSITSRGTISRDTSLNKVFFQLSSVTNEDTAMYYCSRENHIDYYDTTYPSFDVWGAGTTVTVSS
VL: DIVLTQSPASLIVSLGQRATISCRASKSVNEYGYTYMHWYQQKPGLPPKLLIYLASNLDSGVPARFSGSGSGTDFTLNIHPVEEEDAATYYCQHSRELPYTFGGGTKLEIKR
notes: Mouse hybridoma antibody, isotype IgG1, purified with Protein G; also called HCV Neo4
OD (A492 nm) [1]: 0.04 OD | OD (A492 nm) [2]: 0.05 OD | OD (A492 nm) [3]: 1.03 OD | OD (A492 nm) [4]: 0.96 OD | OD (A492 nm) [5]: 0.93 OD | OD (A492 nm) [6]: 0.96 OD | OD (A492 nm) [7]: 1.01 OD | OD (A492 nm) [8]: 0.97 OD | signal at 492 nm [9]: 0.0619 A492 | signal at 492 nm [10]: 0.0644 A492 | signal at 492 nm [11]: 0.0584 A492 | signal at 492 nm [12]: 0.0784 A492 | signal at 492 nm [13]: 0.0978 A492 | signal at 492 nm [14]: 0.22 A492 | signal at 492 nm [15]: 0.0719 A492 | signal at 492 nm [16]: 0.0847 A492 | signal at 492 nm [17]: 0.0694 A492 | signal at 492 nm [18]: 0.0717 A492 | signal at 492 nm [19]: 0.217 A492
